Data published in patent US20230348558A1 (published 2023).

T1: HPV16-E5 peptide on HLA-C*05:01 (human)
T1 peptide: NLDTASTTL

T2: HPV16-E5 peptide on HLA-C*08:02 (human)
T2 peptide: NLDTASTTL

T3: HPV16-E2 peptide on HLA-A*02:01 (human)
T3 peptide: TLQDVSLEVYL


Experiments:
[1] = molecular target: T1, HPV16-E5 peptide on HLA-C*05:01; test: cytokine release
[2] = molecular target: T2, HPV16-E5 peptide on HLA-C*08:02; test: cytokine release
[3] = molecular target: T3, HPV16-E2 peptide on HLA-A*02:01; test: killing

Row | Binder | binding result [1] | binding result [2] | binding result [3]
1 | E5-NLD-TCR (TCR, V domains shown) Valpha: AQKVTQAQTEISVVEKEDVTLDCVYETRDTTYYLFWYKQPPSGELVFLIRRNSFDEQNEISGRYSWNFQKSTSSFNFTITASQVVDSAVYFCALSEGGGSQGNLIFGKGTKLSVKP Vbeta: GVSQSPRYKVTKRGQDVALRCDPISGHVSLYWYRQALGQGPEFLTYFNYEAQQDKSGLPNDRFSAERPEGSISTLTIQRTEQRDSAMYRCASSPELAGPQETQYFGPGTRLLVL | recognises | recognises | –
2 | E2-TLQ-TCR (TCR, V domains shown) Valpha: AQTVTQSQPEMSVQEAETVTLSCTYDTSESNYYLFWYKQPPSRQMILVIRQEAYKQQNATENRFSVNFQKAAKSFSLKISDSQLGDTAMYFCAFTYGGSQGNLIFGKGTKLSVKP Vbeta: EPEVTQTPSHQVTQMGQEVILRCVPISNHLYFYWYRQILGQKVEFLVSFYNNEISEKSEIFDDQFSVERPDGSNFTLKIRSTKLEDSAMYFCASRASVGVGTGELFFGEGSRLTVL | – | – | recognises
